Here are results for five molecules from publication PMC4109916.

Assay [1] concerns the target Recombinant Protein A (SpA) (staphylococcal (species not stated)) (UniProt P38507). Put plainly: ELISA; competition: wells coated with mKate-IgGBP or SpA; 1:4000 dIgG-HRP co-incubated with increasing concentrations of unlabeled IgG, 1 hr at room temperature, 3% BSA in PBS-T; IC50 from a one-site LogIC50 fit.
In assay [2] the target is Human IgG1 (Avastin, bevacizumab) (human).
Assay [3] has as its target hIgG1-TAMRA (labeled human IgG1) (human). Put plainly: flow cytometry on cells; same competition experiment as a5 (1 µM hIgG1-TAMRA, MDCK hFcRn-EYFP/hβ2m cells, 1 hr at 37°C, pH 6); pair of the soluble competitor mKate-IgGBP with the labeled hIgG1 that it binds.
For assay [4], the target named is Human IgG1 (Avastin, bevacizumab) (human). The experiment in a line: SPR; pH 6.
The target is the same in assay [5]. The experiment in a line: SPR; pH 7.4.
Assay [6] has the same target. The source holds these as a separate data set.
Assay [7] concerns the target mKate-IgGBP (monomeric Katushka modified at its C-terminus with the IgG-Fc binding peptide). The experiment in a line: ELISA; competition: wells coated with mKate-IgGBP or SpA; 1:4000 dIgG-HRP co-incubated with increasing concentrations of unlabeled IgG, 1 hr at room temperature, 3% BSA in PBS-T; IC50 from a one-site LogIC50 fit.
Assay [8] concerns the target human neonatal Fc receptor hFcRn-EYFP/hβ2m on MDCK cells (human) (UniProt P55899). Put plainly: flow cytometry on cells; competition: MDCK hFcRn-EYFP/hβ2m cells with 1 µM hIgG1-TAMRA and increasing unlabeled competitor, 1 hr at 37°C, pH 6 (HBSS, 1% ovalbumin, 50 mM MES); read-out is % hIgG1 accumulation (binding and FcRn-dependent endocytosis); pairs with the receptor on cells.
UniProt P55899, sequence (P55899 24-365, chain 1 of 2): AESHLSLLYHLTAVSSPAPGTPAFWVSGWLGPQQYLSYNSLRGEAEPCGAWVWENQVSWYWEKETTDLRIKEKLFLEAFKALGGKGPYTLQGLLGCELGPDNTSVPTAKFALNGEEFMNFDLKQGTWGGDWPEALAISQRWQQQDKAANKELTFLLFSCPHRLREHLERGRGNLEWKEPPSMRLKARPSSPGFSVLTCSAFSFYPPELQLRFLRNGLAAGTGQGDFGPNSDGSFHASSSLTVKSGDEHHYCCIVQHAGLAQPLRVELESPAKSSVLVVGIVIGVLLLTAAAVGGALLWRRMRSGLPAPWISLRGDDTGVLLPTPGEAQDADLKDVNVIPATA
UniProt P55899, sequence (P61769 21-119, chain 2 of 2, further chain): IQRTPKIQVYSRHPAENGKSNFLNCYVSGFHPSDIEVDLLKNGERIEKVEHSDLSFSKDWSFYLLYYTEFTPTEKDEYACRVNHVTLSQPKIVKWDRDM

As to “Human IgG1 (Avastin, bevacizumab) (antibody)”, the IC50 in assay [1] amounted to 22 nM.

In the case of “mKate-IgGBP (monomeric Katushka modified at its C-terminus with the IgG-Fc binding peptide) (designed binder)”, the fold extension of the plasma half-life of mKate-IgGBP co-dosed 1:1 mol with labeled hIgG1 in hFcRn Tg mice, against mKate-IgGBP dosed without hIgG1 in assay [2] amounted to 16 fold. This molecule yielded an IC50 in assay [3] of 700 nM. Further, in assay [4], the Kd came out at 19 nM, the koff is 0.0053 s⁻¹ and the kon stood at 270000 M⁻¹ s⁻¹. In assay [5], the Kd is 40 nM, the koff amounted to 0.0042 s⁻¹ and the kon is 110000 M⁻¹ s⁻¹. Moreover, in assay [6], the plasma half-life of mKate-IgGBP (10 mg/kg i.v.) in hFcRn Tg mice pre-dosed with 500 mg/kg hIgG1 was 8 h.

“mouse IgG2a (CI.18 isotype control) (antibody)”: in assay [1], the IC50 was 61 nM.

As to “mouse IgG2b (MPC-11 isotype control) (antibody)”, the IC50 in assay [1] was 54 nM.

B1: Human IgG1 (Avastin, bevacizumab) (antibody, V domains shown)
VH: EVQLVESGGGLVQPGGSLRLSCAASGYTFTNYGMNWVRQAPGKGLEWVGWINTYTGEPTYAADFKRRFTFSLDTSKSTAYLQMNSLRAEDTAVYYCAKYPHYYGSSHWYFDVWGQGTLVTVSS
VL: DIQMTQSPSSLSASVGDRVTITCSASQDISNYLNWYQQKPGKAPKVLIYFTSSLHSGVPSRFSGSGSGTDFTLTISSLQPEDFATYYCQQYSTVPWTFGQGTKVEIK
In the case of B1, the IC50 was determined as 2.4 nM in assay [7] and 2800 nM in assay [8].
